Data set [1] addresses T1, Cas-alpha 10 base variant (synthetic construct, UniProt P0DW62 SEQ:1-497).
T1 chain: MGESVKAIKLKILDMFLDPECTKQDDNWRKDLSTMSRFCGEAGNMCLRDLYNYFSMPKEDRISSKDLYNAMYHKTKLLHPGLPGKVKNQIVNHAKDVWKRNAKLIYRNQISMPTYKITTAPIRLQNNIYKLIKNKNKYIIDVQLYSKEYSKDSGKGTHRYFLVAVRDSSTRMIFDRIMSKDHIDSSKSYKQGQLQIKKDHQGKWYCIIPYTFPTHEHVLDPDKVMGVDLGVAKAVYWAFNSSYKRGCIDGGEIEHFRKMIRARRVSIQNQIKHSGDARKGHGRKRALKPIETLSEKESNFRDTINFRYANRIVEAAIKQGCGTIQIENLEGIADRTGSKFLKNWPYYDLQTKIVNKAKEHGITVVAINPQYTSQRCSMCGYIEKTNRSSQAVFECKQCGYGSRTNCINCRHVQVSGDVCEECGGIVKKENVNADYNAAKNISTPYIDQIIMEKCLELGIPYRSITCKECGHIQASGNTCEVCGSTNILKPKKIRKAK
Nature of the data set: cell_activity; PAM GTTC; HEK293T 37 C. Conditions: tags: SV40 NLS; chain copies: 2. As for the experimental part:
(§1) Human cell transformation was carried-out by culturing HEK293T cells (ATCC catalog umber CRL-3216) in Dulbecco's Modified Eagle Medium (DMEM) supplemented with 10% fetal bovine serum (FBS) and penicillin (100 U/ml)/streptomycin (100 μg/ml) at 37° C. in 5% CO₂. Cells were then seeded in 96-well plates at a 1.8×10^4 cells/well density. After approximately one day growth, cells were transfected with plasmids encoding nuclease and U6-guide RNA expression cassettes using FuGENE HD (Promega) per manufacturer's instruction. Briefly, on the day of transfection, 0.450 μg of plasmid DNA ([…] of Cas-alpha nuclease and 0.099 μg of sgRNA expression cassettes) was diluted in a final volume of 20 μl of room temperature Opti-MEM (Gibco), mixed, and 1.35 μl of FuGENE HD was added directly to the solution (not allowing undiluted transfection reagent to contact the sides or bottom of the tube or plate) to achieve a 3:1 ratio of transfection reagent to plasmid DNA. The resulting mixture was then incubated for 10 mins at room temperature, 20 μl added to each HEK293T seeded well, and mixed gently by pipetting or by using a shaker. Transfected cells were then grown at 37° C. with 5% CO₂ for 4 days and GFP expression monitored by fluorescence microscope. Experiments were performed with three to twelve independent replicates and transfections where Cas-alpha 10 endonuclease and/or sgRNA plasmid DNA expression cassettes were omitted served as negative controls.
(§2) For human cells, cells were washed twice with PBS two to four days after transfection and lysed using lysis buffer (50 mM Tris, 150 mM NaCl, 0.2% Tween 20, 0.2 mg/ml Proteinase K). Next, RUNX and WTAP targets were evaluated for the presence of targeted mutations using T7 endonuclease I (Guschin, D. Y. et al. (2010) In: Mackay J., Segal D. (eds) Engineered Zinc Finger Proteins. Methods in Molecular Biology (Methods and Protocols), vol 649. Humana Press, Totowa, NJ) and Illumina deep sequencing as described above.

The target in data set [2] is T2, Cas-alpha 10 variant T34E+M45S+G81E+G470D (SEQ ID NO:362) (synthetic construct, UniProt P0DW62 SEQ:1-497, D54F).
T2 sequence: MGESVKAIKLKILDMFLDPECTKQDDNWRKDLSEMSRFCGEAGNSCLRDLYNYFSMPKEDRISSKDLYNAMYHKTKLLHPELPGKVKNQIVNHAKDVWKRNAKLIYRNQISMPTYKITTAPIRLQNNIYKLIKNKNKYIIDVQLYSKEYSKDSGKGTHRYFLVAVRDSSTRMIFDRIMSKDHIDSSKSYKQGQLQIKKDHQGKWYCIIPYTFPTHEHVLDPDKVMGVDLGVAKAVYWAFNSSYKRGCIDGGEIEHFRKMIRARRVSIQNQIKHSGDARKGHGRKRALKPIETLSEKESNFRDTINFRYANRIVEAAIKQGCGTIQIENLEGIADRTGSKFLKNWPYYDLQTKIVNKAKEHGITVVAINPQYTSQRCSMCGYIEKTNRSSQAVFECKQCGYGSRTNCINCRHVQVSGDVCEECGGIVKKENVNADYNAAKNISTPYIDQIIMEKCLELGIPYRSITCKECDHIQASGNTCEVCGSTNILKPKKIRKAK
In words: cell_activity; PAM GTTC; HEK293T 37 C. The conditions noted are these: tags: SV40 NLS, T2A-GFP; chain copies: 2. As for the experimental part:
as §1, §2

Data set [3] has as its target T3, Cas-alpha 10 wild type (Cas12f) (Syntrophomonas palmitatica, UniProt P0DW62 SEQ:1-497).
T3 sequence: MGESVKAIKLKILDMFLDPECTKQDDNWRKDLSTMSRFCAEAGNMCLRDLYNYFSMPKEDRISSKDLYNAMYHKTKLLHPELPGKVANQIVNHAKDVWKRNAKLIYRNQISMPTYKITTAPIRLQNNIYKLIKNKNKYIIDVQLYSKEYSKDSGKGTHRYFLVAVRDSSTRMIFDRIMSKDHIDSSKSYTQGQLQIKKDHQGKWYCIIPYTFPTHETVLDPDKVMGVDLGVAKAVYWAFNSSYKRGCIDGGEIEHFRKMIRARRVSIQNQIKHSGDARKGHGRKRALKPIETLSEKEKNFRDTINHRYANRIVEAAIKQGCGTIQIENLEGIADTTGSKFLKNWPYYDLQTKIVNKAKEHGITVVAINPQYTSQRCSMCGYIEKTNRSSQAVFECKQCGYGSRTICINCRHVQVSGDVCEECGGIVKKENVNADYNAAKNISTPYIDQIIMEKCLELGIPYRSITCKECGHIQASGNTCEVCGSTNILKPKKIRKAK
Nature of the data set: cell_activity; PAM GTTC; HEK293T 37 C. Conditions: tags: SV40 NLS; chain copies: 2. How it is done:
as §1, §2

Data set [4] has as its target T4, Cas-alpha 10 variant G81E (synthetic construct, UniProt P0DW62 SEQ:1-497).
T4 chain: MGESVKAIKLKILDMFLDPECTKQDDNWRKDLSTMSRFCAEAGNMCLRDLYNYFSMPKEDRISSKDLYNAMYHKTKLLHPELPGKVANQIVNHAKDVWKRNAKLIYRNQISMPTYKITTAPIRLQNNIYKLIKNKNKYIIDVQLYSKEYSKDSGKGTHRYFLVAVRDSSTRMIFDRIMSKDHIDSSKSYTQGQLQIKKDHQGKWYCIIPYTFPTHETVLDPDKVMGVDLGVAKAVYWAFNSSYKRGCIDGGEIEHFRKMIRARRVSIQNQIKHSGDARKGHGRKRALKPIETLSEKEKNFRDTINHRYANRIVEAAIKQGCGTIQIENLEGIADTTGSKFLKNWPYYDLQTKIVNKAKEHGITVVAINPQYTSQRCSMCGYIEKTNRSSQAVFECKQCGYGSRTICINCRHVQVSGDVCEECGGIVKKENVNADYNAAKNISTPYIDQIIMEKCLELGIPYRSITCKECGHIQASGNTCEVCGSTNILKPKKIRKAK
Nature of the data set: cell_activity; PAM GTTC; maize, 3x4 hr 45 C. The conditions noted are these: tags: SV40 NLS; chain copies: 2. How it is done:
The resulting T-DNA was then placed into LBA4404, a thymine auxotrophic strain of Agrobacterium tumefaciens, containing Vir9, a separate plasmid encoding the Bo542 virulence genes (US20170121722A1 and WO 2017/078836). The resulting Agrobacterium strain was then used to transform nine-to-ten-day old immature maize embryos (approximately 2 mm in size) by submersion in 700A liquid media containing the strain at an optical density (OD) of 0.4 to 2.0 at 550 nm for 5 min. and then removed from the media and placed on solid co-cultivation medium overnight at 21° C. in the dark. Following T-DNA delivery, embryos are transferred to resting media, 13266R, and grown in the dark at 28° C. for 5-7 days. Next, coleoptiles were removed, and embryos transferred to selection media for 11-16 days and kept in the dark at 28° C. They were then moved to maturation media and incubated for 14-25 days in the dark at 28° C. and then subject to light for 2-5 days. Next, they were moved to rooting media and incubated at 26-28° C. under light for 14-28 days refreshing media as needed. To examine Cas-alpha nuclease-guide RNA activity, transformed tissue was incubated at 28° C., standard for Agrobacterium transformation, or at a range of temperatures lower or higher than 28° C.
In a third study, the efficiency of targeted mutagenesis of Cas-alpha 10 endonuclease variants, SEQ ID NOs:14, 48, 60, and 157, were compared when tested with two sgRNA recognition domains, SEQ ID NOs:61 and 327, at two target sites, MS26 and D8. Experiments were carried-out in Zea mays using Agrobacterium (Agro) transformation as described in Example 2. Two temperature regimens were performed. The first subjected Agro transformed embryos (once per day) to 45° C. for 4 hrs on days 3, 4, and 5 (3×4 hr 45° C.) after infection and the second to a continuous incubation at 37° C. on days 1-3 (1-3d 37° C.) following infection. For both regimens, embryos were placed at 28° C. before and after temperature treatment. […]

B1: sgRNA RUNX Design 5_157-159 ; RUNX target (ssRNA ; dsDNA)
RNA: GUUUCGCGCGCCAGGGCAGUUAGGUGCCCUAAAAGAGCGAAGUGGCCGAAAGGAAAGGCUAACGCUUCUCUAACGCUACGGCGACCUUGGCGAAAUGCCAUCAAUACCACGCGGCCCGAAAGGGUUCGCGCGAAACGAACGCAUCUUGCGUAAGCGCGUGGAUUGAAACCCUGUCUUGUUUGUGAGAGG
DNA 1: GTTCCCTGTCTTGTTTGTGAGAGG
DNA 2: CCTCTCACAAACAAGACAGGGAAC
For B1, the figures for the activity in data set [1] and in data set [2] were 19.6 % targeted mutagenesis and 24.2 % targeted mutagenesis, respectively.

B2: sgRNA RUNX (original) ; RUNX target (ssRNA ; dsDNA)
RNA: AUUUACUCUGUUUCGCGCGCCAGGGCAGUUAGGUGCCCUAAAAGAGCGAAGUGGCCGAAAGGAAAGGCUAACGCUUCUCUAACGCUACGGCGACCUUGGCGAAAUGCCAUCAAUACCACGCGGCCCGAAAGGGUUCGCGCGAAACUGAGUAAUGAAAGUCGCAUCUUGCGUAAGCGCGUGGAUUGAAACCCUGUCUUGUUUGUGAGAGG
DNA 1: GTTCCCTGTCTTGTTTGTGAGAGG
DNA 2: CCTCTCACAAACAAGACAGGGAAC
For B2, the activity in data set [1] amounted to 8.77 % targeted mutagenesis; in data set [3], 5.68 % targeted mutagenesis.

B3: sgRNA MS26 (original) ; MS26 target (ssRNA ; dsDNA)
RNA: AUUUACUCUGUUUCGCGCGCCAGGGCAGUUAGGUGCCCUAAAAGAGCGAAGUGGCCGAAAGGAAAGGCUAACGCUUCUCUAACGCUACGGCGACCUUGGCGAAAUGCCAUCAAUACCACGCGGCCCGAAAGGGUUCGCGCGAAACUGAGUAAUGAAAGUCGCAUCUUGCGUAAGCGCGUGGAUUGAAACAAGUUCACGGCGUUCCAGGC
DNA 1: GTTCAAGTTCACGGCGTTCCAGGC
DNA 2: GCCTGGAACGCCGTGAACTTGAAC
On to B3, for which, in data set [4], the activity stood at 6.62 % targeted mutagenesis.

The values are drawn from patent US20260218147, “CAS ENDONUCLEASE AND GUIDE RNA VARIANTS WITH IMPROVED EFFICIENCY” (PIONEER HI-BRED INTERNATIONAL, INC., published 2026).
